Here are results for eight sequences from patent publication US20210332339.

Common to all, as to assay: cell_activity
Data set [1] concerns ZFA36-ND3 (Artificial (ND3 from Clostridium sp. 7_2_43FAA)).
Data set [2] has as its system ZFA36-ND4 (Artificial (ND4 from Clostridiales bacterium)).
Data set [3] concerns ZFA36-FokI (FokI-ND ZFN) (Artificial).
Data set [4] deals with ZFA36-FokI-Sharkey (Artificial). As to conditions: SSA reporter HEK293T.
Data set [5] relates to ZFA36-ND1 (Artificial (ND1 from Bacillus sp. SGD-V-76)).
The test system of data set [6] is TALE-ROSA26-FokI right (Artificial). As to conditions: SSA reporter pair with left TALEN, close to reference.
Data set [7] concerns TALE-ROSA26-ND1 right (Artificial). As to conditions: SSA reporter pair with left TALEN.
The test system of the next data set is ZFL1-ND1 (Artificial). As to conditions: SSA, ZFL1-ND1 alone.
Chain of ZFL1-ND1 (Artificial) (chain, as listed by the source): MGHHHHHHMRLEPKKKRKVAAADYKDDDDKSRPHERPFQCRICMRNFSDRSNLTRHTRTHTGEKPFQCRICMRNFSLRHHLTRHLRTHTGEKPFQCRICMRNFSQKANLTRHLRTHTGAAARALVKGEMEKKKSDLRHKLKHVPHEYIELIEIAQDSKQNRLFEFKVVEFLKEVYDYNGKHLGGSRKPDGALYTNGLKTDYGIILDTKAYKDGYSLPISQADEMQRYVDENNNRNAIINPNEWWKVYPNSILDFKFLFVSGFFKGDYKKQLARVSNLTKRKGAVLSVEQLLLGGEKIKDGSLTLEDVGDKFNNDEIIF
The subject of data set [8] is TALE-HPRT1-FokI right (Artificial). As to conditions: SSA reporter pair with left TALEN.
For data set [9], the system named is TALE-HPRT1-ND1 right (Artificial). The settings on record: SSA reporter pair with left TALEN.
Data set [10] concerns TALE-HPRT1-FokI left (Artificial). The settings on record: SSA reporter pair with right TALEN.
The subject of data set [11] is TALE-HPRT1-ND1 left (Artificial). As to conditions: SSA reporter pair with right TALEN.
Data set [12] relates to TALE-ROSA26-FokI left (Artificial). As to conditions: SSA reporter pair with right TALEN, close to reference.
For data set [13], the system named is TALE-ROSA26-ND1 left (Artificial). As to conditions: SSA reporter pair with right TALEN.

Chain of ZFA36-FokI (FokI-ND ZFN) (Artificial) (chain, as listed by the source): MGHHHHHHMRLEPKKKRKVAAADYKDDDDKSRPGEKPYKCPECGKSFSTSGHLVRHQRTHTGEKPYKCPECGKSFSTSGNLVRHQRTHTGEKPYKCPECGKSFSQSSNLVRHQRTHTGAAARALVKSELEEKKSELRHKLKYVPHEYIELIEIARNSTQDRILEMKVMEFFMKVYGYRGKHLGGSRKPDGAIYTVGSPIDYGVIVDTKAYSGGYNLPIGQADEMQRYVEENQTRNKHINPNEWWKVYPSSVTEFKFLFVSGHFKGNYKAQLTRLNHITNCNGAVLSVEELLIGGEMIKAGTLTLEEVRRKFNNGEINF
Chain of ZFA36-FokI-Sharkey (Artificial) (chain, as listed by the source): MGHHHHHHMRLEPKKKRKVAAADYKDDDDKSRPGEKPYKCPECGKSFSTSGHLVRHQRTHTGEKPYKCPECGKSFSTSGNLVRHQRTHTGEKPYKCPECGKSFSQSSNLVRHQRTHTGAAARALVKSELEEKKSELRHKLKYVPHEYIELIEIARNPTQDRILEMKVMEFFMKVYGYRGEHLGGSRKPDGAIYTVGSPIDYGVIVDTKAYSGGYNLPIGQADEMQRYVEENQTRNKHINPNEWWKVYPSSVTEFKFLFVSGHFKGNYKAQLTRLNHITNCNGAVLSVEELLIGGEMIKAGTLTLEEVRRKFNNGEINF

Turning to “ACCATCTTCAAGAGAGAAGATGGC (double strand) [ZFA36-ZFA36 CHO-K1 2nd site]”, the activity (% mutated clones) is 18.8 in [1] (CHO-K1, 3/16) and 0 in data set [2] (CHO-K1, 0/14).
On to “ACCATCTTCCACTCTGAAGATGGA (double strand) [ZFA36-ZFA36 CHO-K1 1st site]”, for which the activity (% mutated clones) came to 0 in [1] (CHO-K1, 0/15, Cel-I about 25-45% of FokI depending on site) and 0 in data set [2] (CHO-K1, 0/16, no cleavage detected).
The sequence “ACCATCTTCNNNNNNGAAGATGGT (double strand) [ZFA36-6bp-ZFA36 site]” yielded a binding signal in data set [3] (SSA reporter HEK293T, reference) of 1. The binding signal (fold of ZFA36-FokI) was 1.5 in data set [4], more than 1.2 in data set [5] (SSA reporter HEK293T), 0.2 in data set [1] (SSA reporter HEK293T) and 0.2 in data set [2] (SSA reporter HEK293T).
Take “GCCTCGACTTGCAGATCA (double strand) [ROSA26 right half-site (top strand)]”: the binding signal (fold of ZFA36-FokI) in [6] was 1. The sequence further showed a binding signal (fold of TALE-ROSA26-FokI) in data set [7] of 2.
In the case of “GTCACCTTCNNNNNNGAAGATGGT (double strand) [ZFL1-6bp-ZFA36 site]”, the binding signal in data set [3] (SSA, ZFA36-FokI alone) was determined as 35%; in [5] (SSA, ZFA36-ND1 alone), 90%; with ZFL1-ND1 (Artificial), 40%.
Regarding “TCCTAATCACTATGTCGA (double strand) [HPRT1 right half-site (top strand)]”, in [8], the binding signal (fold of ZFA36-FokI) was 0.5. For the same sequence, the binding signal (fold of TALE-HPRT1-FokI) in data set [9] came out at 2.
As for “TGAACCAGGCTATGACCT (double strand) [HPRT1 left half-site]”, in [10], the binding signal (fold of ZFA36-FokI) was 0.5. Also, in data set [11], the binding signal (fold of TALE-HPRT1-FokI) is 2.
As for “TGCCCAGAAGACTCCCG (double strand) [ROSA26 left half-site]”, in [12], the binding signal (fold of ZFA36-FokI) was found to be 1. Further, the binding signal (fold of TALE-ROSA26-FokI) in data set [13] worked out at 2.
